This data set addresses T1, CasEnd-4 (synthetic construct).
T1 chain: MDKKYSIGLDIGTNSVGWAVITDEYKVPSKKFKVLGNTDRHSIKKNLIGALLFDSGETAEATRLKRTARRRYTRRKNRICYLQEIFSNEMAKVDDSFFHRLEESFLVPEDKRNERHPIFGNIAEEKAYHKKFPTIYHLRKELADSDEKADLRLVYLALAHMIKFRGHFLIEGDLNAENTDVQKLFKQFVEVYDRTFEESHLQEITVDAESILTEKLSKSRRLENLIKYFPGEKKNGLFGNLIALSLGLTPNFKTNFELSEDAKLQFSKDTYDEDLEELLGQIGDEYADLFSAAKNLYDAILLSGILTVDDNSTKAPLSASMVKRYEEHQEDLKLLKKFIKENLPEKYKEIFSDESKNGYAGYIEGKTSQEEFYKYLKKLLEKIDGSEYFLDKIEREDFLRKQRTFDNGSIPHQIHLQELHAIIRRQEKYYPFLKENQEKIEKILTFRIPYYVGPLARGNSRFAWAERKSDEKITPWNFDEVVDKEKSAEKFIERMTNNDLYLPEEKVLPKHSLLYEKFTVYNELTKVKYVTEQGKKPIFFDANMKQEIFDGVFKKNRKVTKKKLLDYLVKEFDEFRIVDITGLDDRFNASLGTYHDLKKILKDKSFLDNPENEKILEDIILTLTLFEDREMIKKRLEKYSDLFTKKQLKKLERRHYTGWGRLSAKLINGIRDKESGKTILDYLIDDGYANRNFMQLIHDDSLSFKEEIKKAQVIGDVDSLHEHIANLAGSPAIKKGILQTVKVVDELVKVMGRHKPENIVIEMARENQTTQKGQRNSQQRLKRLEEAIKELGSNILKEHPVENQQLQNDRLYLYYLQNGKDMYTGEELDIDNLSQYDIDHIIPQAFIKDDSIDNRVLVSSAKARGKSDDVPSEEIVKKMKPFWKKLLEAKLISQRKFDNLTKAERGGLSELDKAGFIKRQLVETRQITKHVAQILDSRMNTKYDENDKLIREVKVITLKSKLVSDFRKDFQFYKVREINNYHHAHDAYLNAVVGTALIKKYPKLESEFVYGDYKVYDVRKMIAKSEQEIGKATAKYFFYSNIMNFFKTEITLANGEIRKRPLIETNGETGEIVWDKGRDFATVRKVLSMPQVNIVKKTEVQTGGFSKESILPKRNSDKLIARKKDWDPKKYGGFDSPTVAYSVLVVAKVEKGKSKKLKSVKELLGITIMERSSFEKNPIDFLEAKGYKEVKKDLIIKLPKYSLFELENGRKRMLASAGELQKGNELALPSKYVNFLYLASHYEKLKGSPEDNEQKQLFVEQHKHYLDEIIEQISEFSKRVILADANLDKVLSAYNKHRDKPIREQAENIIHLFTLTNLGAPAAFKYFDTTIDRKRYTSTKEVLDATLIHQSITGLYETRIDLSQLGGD
The data set can be described thus: cell_activity; +++; HEK293T; PAM not stated. The procedure, abridged: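 BFP-to-GFP conversion via reverse transcriptase fusion with each Cas endonuclease plus template RNA: 200 ng of each plasmid nucleofected into 250,000 BFP-expressing HEK293T cells (program DS-150). Percent GFP+ cells by flow cytometry at day 4 measured editing.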

B1: BFP-to-GFP template RNA ; BFP reporter protospacer (ssRNA ; dsDNA)
RNA: GCCGAAGCACUGCACGCCGUGUUUUAGAGCUAGAAAUAGCAAGUUAAAAUAAGGCUAGUCCGUUAUCAACUUGAAAAAGUGGCACCGAGUCGGUGCACCCUGACGUACGGCGUGCAGUGCUU
DNA 1: GCCGAAGCACTGCACGCCGT
DNA 2: ACGGCGTGCAGTGCTTCGGC
In the case of B1, the activity was ≥ 100 % of reference.

These data come from patent US20250092426, “CAS ENDONUCLEASES AND RELATED METHODS” (Flagship Pioneering Innovations VII, LLC, published 2025).
